Key:
[1] = target: M.TaqI (DNA adenine-N6 methyltransferase) (UniProt P14385); conditions: natural cofactor AdoMet; R.TaqI protection assay, 60 C 4 h; analogs 3: 10, 4: <5, 5: 80, 6: 10, 7: 1280, 8: 640, 9: 640; cofactor 10: 11 u/ug (1 h)
M.TaqI V21G V21G = conditions: natural cofactor AdoMet; R.TaqI protection assay; analogs 3: 5, 4: <5, 5: 640, 6: 20, 7: 80, 8: 80, 9: 2560
[2] = system: M.HhaI (DNA cytosine-C5 methyltransferase); conditions: natural cofactor AdoMet; R.Hin6I protection assay, 37 C; analogs 3: <4, 4: 0, 5: 7, 6: <4, 7: 29, 8: <4
M.HhaI Q82A Q82A = target: T1, M.HhaI Q82A Q82A (UniProt P05102); conditions: natural cofactor AdoMet; R.Hin6I protection assay; analogs 3: 7, 4: 0, 5: 29, 6: <4, 7: 58, 8: <4
T1 sequence: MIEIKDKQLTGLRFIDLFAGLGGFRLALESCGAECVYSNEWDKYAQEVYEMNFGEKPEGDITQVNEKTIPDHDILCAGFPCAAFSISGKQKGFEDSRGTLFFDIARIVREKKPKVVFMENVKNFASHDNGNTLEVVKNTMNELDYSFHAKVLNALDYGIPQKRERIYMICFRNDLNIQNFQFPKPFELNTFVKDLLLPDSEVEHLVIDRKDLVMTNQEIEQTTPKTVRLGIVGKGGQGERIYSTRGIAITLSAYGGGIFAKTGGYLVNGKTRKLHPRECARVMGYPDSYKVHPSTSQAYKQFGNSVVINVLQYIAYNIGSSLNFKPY

[3] = system: M.SssI Q142A (DNA cytosine-C5 methyltransferase) Q142A (Spiroplasma sp.?); conditions: natural cofactor AdoMet; R.BstUI protection assay, 37 C; analogs 5: 1.2, 7: 0.6
[4] = system: M.BcnIB (DNA cytosine-N4 methyltransferase); conditions: natural cofactor AdoMet; R.BcnI protection assay, 37 C; analogs 3-5: <7, 6: 0, 7: 28, 8: 14

M.TaqI (DNA adenine-N6 methyltransferase), sequence (P14385 whole entry): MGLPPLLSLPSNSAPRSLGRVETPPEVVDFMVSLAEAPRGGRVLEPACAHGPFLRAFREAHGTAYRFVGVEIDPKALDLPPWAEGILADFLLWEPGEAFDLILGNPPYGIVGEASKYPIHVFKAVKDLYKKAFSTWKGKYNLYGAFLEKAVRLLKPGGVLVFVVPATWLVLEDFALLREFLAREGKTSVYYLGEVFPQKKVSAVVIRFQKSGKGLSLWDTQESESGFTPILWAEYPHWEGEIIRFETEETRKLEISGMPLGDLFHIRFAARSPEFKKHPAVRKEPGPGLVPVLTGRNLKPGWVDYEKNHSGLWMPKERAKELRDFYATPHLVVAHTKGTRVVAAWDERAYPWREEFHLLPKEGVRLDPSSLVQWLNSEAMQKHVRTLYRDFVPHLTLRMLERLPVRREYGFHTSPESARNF

Q: What does the source list for phage lambda DNA (48502 bp)?
A: activity [1]: 41000 u/µg; activity (M.TaqI V21G V21G): 320 u/µg; activity [2]: 460 u/µg; activity (M.HhaI Q82A Q82A): 115 u/µg; activity [3]: 20 u/µg; activity [4]: 444 u/µg

— patent publication US20090018101
